Test results published in paper PMC10849588.

Biological target: GMPCPP-stabilized, fluorescently labeled, biotinylated microtubules (untreated) (UniProt P02550)

% of (+)-end movements, Clusters, 110 mM KCl: 41%
% of (+)-end movements, Monomers (single molecules), 110 mM KCl: 29%
% of total runs >60 s, Monomers (single molecules), 110 mM KCl: 17%
Substance: wild-type full-length Cin8, GFP- and 6x His-tagged (from UniProt P27895 1-1000) (natural protein)
